Measurements published in patent US11001838B2, “Platform for screening phosphomevalonate decarboxylase” (The Regents of the University of California, priority 2017, dated 2021).
“And” between values parts separate entries of the source, which are not always exact repeats. Equal entries are not always repeated.

Experiments:
E. coli DH1 [1] = test: Isopentenol production in E. coli via IPP-bypass MVA pathway (GC-FID); assay type: cell-based, Escherichia coli
[2] = substrate: C[C@@](O)(CCOP(=O)(O)O)CC(=O)O; test: purified protein, by the assay type; conditions: other: MVAP 0.100-4.0 mM, 4 mM ATP, pH 7.5, brackets: standard error
Description: This turnover number (kobs) depends upon each mutant's kcat, KM, and KI, yielding a more accurate assessment of the turnover conditions in vivo (Kang et al., 2016).
In vitro enzyme kinetics of PMDsc were performed as described in the previous study (Kang et al., 2016). Briefly, enzymatic activity was determined by a spectrophotometric assay quantifying ADP product formation via the pyruvate kinase/lactate dehydrogenase coupled enzyme assay. Assay mixtures were prepared in 150 μL total volume containing 50 mM HEPES-KOH (pH 7.5), 10 mM MgCl2, 400 μM phosphoenolpyruvate, 400 μM NADH, 4 mM ATP, and 25 U of pyruvate kinase/lactate dehydrogenase. The reaction was initiated by enzyme after incubating PMDsc substrate and cofactor for fifteen minutes with coupled assay components. The MVAP was varied from 0.100-4.0 mM, and the reaction velocity was determined by monitoring the absorbance at 340 nm in a Spectramax 384plus microplate reader (Molecular Devices, USA). To obtain kinetic data relevant to non-competitive substrate inhibition, MVAP was varied from 0.100-100 mM. Enzyme concentration (ε=56,630 M^−1 cm^−1) was determined spectrophotometrically at 280 nm with a NanoDrop ND-1000 spectrophotometer. kcat and KM were derived for PMDsc mutants by fitting the initial velocities measured from 0.100-4.0 mM MVAP to the Michaelis-Menten equation; KI was determined for select mutants by fitting initial velocities measured from 0.100-100 mM MVAP to the non-competitive substrate inhibition equation. All kinetic analysis was performed in Graphpad Prism, version 7.0a.

E. coli DH1 [3] = test: Growth of E. coli DH1 under the screening conditions (MEP pathway blocked by fosmidomycin, IPP-bypass pathway + IPK); conditions: for growth under fosmidomycin selection pressure: screening platform
[4] = substrate: C[C@@](O)(CCOP(=O)(O)O)CC(=O)O; test: In vitro kinetics of MVAP decarboxylation by PMDsc I145A (coupled assay); assay type: biochemical, Saccharomyces cerevisiae; conditions: other: MVAP 0.100-4.0 mM, 4 mM ATP, pH 7.5, brackets: standard error
[5] = In vitro enzyme kinetics of PMDsc variants (pyruvate kinase/lactate dehydrogenase coupled assay); assay type: biochemical
[6] = cited from earlier work; for activity of WT for phosphomevalonate (MVAP): previous study (Kang 2015)
[7] = substrate: C[C@@](O)(CCOP(=O)(O)O)CC(=O)O; test: In vitro kinetics of MVAP decarboxylation by PMDsc R147K (coupled assay); assay type: biochemical, Saccharomyces cerevisiae; conditions: other: MVAP 0.100-4.0 mM, 4 mM ATP, pH 7.5, brackets: standard error
[8] = 10-fold higher inducer concentration (100 nM aTc)
[9] = Table 2, screening conditions, standard deviation in brackets
[10] = Table 2, MVAP 0.100-4.0 mM, standard error in brackets
[11] = Table 2, MVAP, standard error in brackets

B1: Saccharomyces cerevisiae diphosphomevalonate decarboxylase (PMDsc), wild type, SEQ ID NO: 1 (Saccharomyces cerevisiae S288C) (protein)
chain: MTVYTASVTAPVNIATLKYWGKRDTKLNLPTNSSISVTLSQDDLRTLTSAATAPEFERDTLWLNGEPHSIDNERTQNCLRDLRQLRKEMESKDASLPTLSQWKLHIVSENNFPTAAGLASSAAGFAALVSAIAKLYQLPQSTSEISRIARKGSGSACRSLFGGYVAWEMGKAEDGHDSMAVQIADSSDWPQMKACVLVVSDIKKDVSSTQGMQLTVATSELFKERIEHVVPKRFEVMRKAIVEKDFATFAKETMMDSNSFHATCLDSFPPIFYMNDTSKRIISWCHTINQFYGETIVAYTFDAGPNAVLYYLAENESKLFAFIYKLFGSVPGWDKKFTTEQLEAFNHQFESSNFTARELDLELQKDVARVILTQVGSGPQETNESLIDAKTGLPKE
E. coli DH1 [1]
  48 hr Titer (isopentenol): 475 (40) mg/L and 475 mg/L
E. coli DH1 [1]; text and figure legends, 48 hours after induction
  isopentenol titer: 475.1 mg/L
E. coli DH1 [1]; text and figure legends, 48 hours after induction, listed as wild type
  isopentenol titer: 475 mg/L
[2]
  Km: 2.3 ± 0.2 mM
  kcat: 0.15 (0.01) sec^−1
  kcat/Km: 0.066 (0.007) mM^−1 sec^−1
E. coli DH1 [3]; [8]
  Growth rate: 0.83±0.01 hr^1
E. coli DH1 [3]; FIG. 6 legend
  growth rate (reference line FIG. 6): 0.4
E. coli DH1 [3]; [9]
  Growth rate: 0.39 (0.02) hr^−1
E. coli DH1 [3]; Table 3
  Growth rate: 0.39 h⁻¹
E. coli DH1 [3]; screening conditions
  Growth rate: 0.4 h⁻¹

B2: Saccharomyces cerevisiae diphosphomevalonate decarboxylase (PMDsc, SEQ ID NO: 1) variant R74G (Saccharomyces cerevisiae S288C; R74G) (protein)
chain: MTVYTASVTAPVNIATLKYWGKRDTKLNLPTNSSISVTLSQDDLRTLTSAATAPEFERDTLWLNGEPHSIDNEGTQNCLRDLRQLRKEMESKDASLPTLSQWKLHIVSENNFPTAAGLASSAAGFAALVSAIAKLYQLPQSTSEISRIARKGSGSACRSLFGGYVAWEMGKAEDGHDSMAVQIADSSDWPQMKACVLVVSDIKKDVSSTQGMQLTVATSELFKERIEHVVPKRFEVMRKAIVEKDFATFAKETMMDSNSFHATCLDSFPPIFYMNDTSKRIISWCHTINQFYGETIVAYTFDAGPNAVLYYLAENESKLFAFIYKLFGSVPGWDKKFTTEQLEAFNHQFESSNFTARELDLELQKDVARVILTQVGSGPQETNESLIDAKTGLPKE
E. coli DH1 [1]
  48 hr Titer (isopentenol): 975 (96) mg/L and 975 mg/L
[2]
  Km: 3.4 (1.0) mM
  kcat: 0.14 (0.02) sec^−1
  kcat/Km: 0.04 (0.01) mM^−1 sec^−1
E. coli DH1 [3]; [9]
  Growth rate: 0.81 (0.03) hr^−1
E. coli DH1 [3]; Table 3
  Growth rate: 0.81 h⁻¹

B3: Saccharomyces cerevisiae diphosphomevalonate decarboxylase (PMDsc, SEQ ID NO: 1) variant I145A (Saccharomyces cerevisiae S288C; I145A) (protein)
chain: MTVYTASVTAPVNIATLKYWGKRDTKLNLPTNSSISVTLSQDDLRTLTSAATAPEFERDTLWLNGEPHSIDNERTQNCLRDLRQLRKEMESKDASLPTLSQWKLHIVSENNFPTAAGLASSAAGFAALVSAIAKLYQLPQSTSEASRIARKGSGSACRSLFGGYVAWEMGKAEDGHDSMAVQIADSSDWPQMKACVLVVSDIKKDVSSTQGMQLTVATSELFKERIEHVVPKRFEVMRKAIVEKDFATFAKETMMDSNSFHATCLDSFPPIFYMNDTSKRIISWCHTINQFYGETIVAYTFDAGPNAVLYYLAENESKLFAFIYKLFGSVPGWDKKFTTEQLEAFNHQFESSNFTARELDLELQKDVARVILTQVGSGPQETNESLIDAKTGLPKE
notes: His tag; made in house; host or cells: E. coli Rosetta (DE3)
E. coli DH1 [1]
  48 hr Titer (isopentenol): 623 (140) mg/L
[4]
  Km: 2 (1) mM
  kcat: 0.029 (0.004) sec^−1
  kcat/Km: 0.01 (0.01) mM^−1 sec^−1
E. coli DH1 [3]; [9]
  Growth rate: 0.17 (0.00) hr^−1

B4: V230E: PMDsc mutant V230E (protein)
chain: MTVYTASVTAPVNIATLKYWGKRDTKLNLPTNSSISVTLSQDDLRTLTSAATAPEFERDTLWLNGEPHSIDNERTQNCLRDLRQLRKEMESKDASLPTLSQWKLHIVSENNFPTAAGLASSAAGFAALVSAIAKLYQLPQSTSEISRIARKGSGSACRSLFGGYVAWEMGKAEDGHDSMAVQIADSSDWPQMKACVLVVSDIKKDVSSTQGMQLTVATSELFKERIEHVEPKRFEVMRKAIVEKDFATFAKETMMDSNSFHATCLDSFPPIFYMNDTSKRIISWCHTINQFYGETIVAYTFDAGPNAVLYYLAENESKLFAFIYKLFGSVPGWDKKFTTEQLEAFNHQFESSNFTARELDLELQKDVARVILTQVGSGPQETNESLIDAKTGLPKE
E. coli DH1 [1]
  48 hr Titer (isopentenol): 278 (91) mg/L and 278 mg/L
E. coli DH1 [3]; [9]
  Growth rate: 0.21 (0.18) hr^−1
E. coli DH1 [3]; Table 3
  Growth rate: 0.2 h⁻¹
[5]; MVAP up to 100 mM, read-out: KI (substrate inhibition)
  Ki: 10 mM
[5]; [10]
  kcat: 0.07 (0.01) sec^−1
[5]; [11]
  Km: 800 µM
[5]; Table 3
  Km: 800 µM
  kcat: 0.07 s⁻¹
[5]; Table 3, observed turnover number calculated at 100 mM MVAP
  kobs: 0.006 s⁻¹

B5: K22M: PMDsc mutant K22M with decreased activity, previous study (protein)
chain: MTVYTASVTAPVNIATLKYWGMRDTKLNLPTNSSISVTLSQDDLRTLTSAATAPEFERDTLWLNGEPHSIDNERTQNCLRDLRQLRKEMESKDASLPTLSQWKLHIVSENNFPTAAGLASSAAGFAALVSAIAKLYQLPQSTSEISRIARKGSGSACRSLFGGYVAWEMGKAEDGHDSMAVQIADSSDWPQMKACVLVVSDIKKDVSSTQGMQLTVATSELFKERIEHVVPKRFEVMRKAIVEKDFATFAKETMMDSNSFHATCLDSFPPIFYMNDTSKRIISWCHTINQFYGETIVAYTFDAGPNAVLYYLAENESKLFAFIYKLFGSVPGWDKKFTTEQLEAFNHQFESSNFTARELDLELQKDVARVILTQVGSGPQETNESLIDAKTGLPKE
[6]
  activity of WT for phosphomevalonate (MVAP): 25%
E. coli DH1 [3]; [8]
  Growth rate: 0.83±0.01 hr^1
E. coli DH1 [3]
  growth under fosmidomycin selection pressure: decreased growth rates relative to wild type

B6: S208E: inactive PMDsc mutant, negative control (protein)
chain: MTVYTASVTAPVNIATLKYWGKRDTKLNLPTNSSISVTLSQDDLRTLTSAATAPEFERDTLWLNGEPHSIDNERTQNCLRDLRQLRKEMESKDASLPTLSQWKLHIVSENNFPTAAGLASSAAGFAALVSAIAKLYQLPQSTSEISRIARKGSGSACRSLFGGYVAWEMGKAEDGHDSMAVQIADSSDWPQMKACVLVVSDIKKDVSETQGMQLTVATSELFKERIEHVVPKRFEVMRKAIVEKDFATFAKETMMDSNSFHATCLDSFPPIFYMNDTSKRIISWCHTINQFYGETIVAYTFDAGPNAVLYYLAENESKLFAFIYKLFGSVPGWDKKFTTEQLEAFNHQFESSNFTARELDLELQKDVARVILTQVGSGPQETNESLIDAKTGLPKE
[6]; Kang et al., 2016
  activity toward MVAP: inactive toward MVAP
[6]
  activity of WT for phosphomevalonate (MVAP): not detectible
E. coli DH1 [3]
  growth under fosmidomycin selection pressure: none of three IPK-expressing DH1 strains (SP4, SP5 and SP6) could grow

B7: R74G-R147K-Q140L: PMDsc triple mutant (protein)
chain: MTVYTASVTAPVNIATLKYWGKRDTKLNLPTNSSISVTLSQDDLRTLTSAATAPEFERDTLWLNGEPHSIDNEGTQNCLRDLRQLRKEMESKDASLPTLSQWKLHIVSENNFPTAAGLASSAAGFAALVSAIAKLYQLPLSTSEISKIARKGSGSACRSLFGGYVAWEMGKAEDGHDSMAVQIADSSDWPQMKACVLVVSDIKKDVSSTQGMQLTVATSELFKERIEHVVPKRFEVMRKAIVEKDFATFAKETMMDSNSFHATCLDSFPPIFYMNDTSKRIISWCHTINQFYGETIVAYTFDAGPNAVLYYLAENESKLFAFIYKLFGSVPGWDKKFTTEQLEAFNHQFESSNFTARELDLELQKDVARVILTQVGSGPQETNESLIDAKTGLPKE
E. coli DH1 [1]
  48 hr Titer (isopentenol): 401 (10) mg/L
[5]; [10]
  kcat: 0.06 (0.01) sec^−1
[5]; [11]
  Km: 2000 µM

B8: R74G-R147K: PMDsc double mutant (protein)
chain: MTVYTASVTAPVNIATLKYWGKRDTKLNLPTNSSISVTLSQDDLRTLTSAATAPEFERDTLWLNGEPHSIDNEGTQNCLRDLRQLRKEMESKDASLPTLSQWKLHIVSENNFPTAAGLASSAAGFAALVSAIAKLYQLPQSTSEISKIARKGSGSACRSLFGGYVAWEMGKAEDGHDSMAVQIADSSDWPQMKACVLVVSDIKKDVSSTQGMQLTVATSELFKERIEHVVPKRFEVMRKAIVEKDFATFAKETMMDSNSFHATCLDSFPPIFYMNDTSKRIISWCHTINQFYGETIVAYTFDAGPNAVLYYLAENESKLFAFIYKLFGSVPGWDKKFTTEQLEAFNHQFESSNFTARELDLELQKDVARVILTQVGSGPQETNESLIDAKTGLPKE
E. coli DH1 [1]
  isopentenol titer relative to wild type: 1.9 fold
  48 hr Titer (isopentenol): 909 (25) mg/L
E. coli DH1 [3]; [9]
  Growth rate: 0.84 (0.04) hr^−1
[5]; [10]
  kcat: 0.22 (0.01) sec^−1
[5]; [11]
  Km: 530 µM

B9: Saccharomyces cerevisiae diphosphomevalonate decarboxylase (PMDsc, SEQ ID NO: 1) variant R147K (Saccharomyces cerevisiae S288C; R147K) (protein)
chain: MTVYTASVTAPVNIATLKYWGKRDTKLNLPTNSSISVTLSQDDLRTLTSAATAPEFERDTLWLNGEPHSIDNERTQNCLRDLRQLRKEMESKDASLPTLSQWKLHIVSENNFPTAAGLASSAAGFAALVSAIAKLYQLPQSTSEISKIARKGSGSACRSLFGGYVAWEMGKAEDGHDSMAVQIADSSDWPQMKACVLVVSDIKKDVSSTQGMQLTVATSELFKERIEHVVPKRFEVMRKAIVEKDFATFAKETMMDSNSFHATCLDSFPPIFYMNDTSKRIISWCHTINQFYGETIVAYTFDAGPNAVLYYLAENESKLFAFIYKLFGSVPGWDKKFTTEQLEAFNHQFESSNFTARELDLELQKDVARVILTQVGSGPQETNESLIDAKTGLPKE
notes: as for B3
[7]
  Km: 0.5 (0.1) mM
  kcat: 0.149 (0.006) sec^−1
  kcat/Km: 0.32 (.09) mM^−1 sec^−1
E. coli DH1 [1]
  48 hr Titer (isopentenol): 793 (22) mg/L
E. coli DH1 [1]; compared with wild type or library mutants
  isopentenol titer: increased isopentenol production titers
E. coli DH1 [3]; [9]
  Growth rate: 0.56 (0.02) hr^−1
